Reference: patent US20200123233A1 (published 2020)

T1: Glycoprotein G of rabies virus strain CVS-11 (Challenge Virus Standard-11, ATCC VR 959) (rabies virus, strain CVS-11)
T1 chain: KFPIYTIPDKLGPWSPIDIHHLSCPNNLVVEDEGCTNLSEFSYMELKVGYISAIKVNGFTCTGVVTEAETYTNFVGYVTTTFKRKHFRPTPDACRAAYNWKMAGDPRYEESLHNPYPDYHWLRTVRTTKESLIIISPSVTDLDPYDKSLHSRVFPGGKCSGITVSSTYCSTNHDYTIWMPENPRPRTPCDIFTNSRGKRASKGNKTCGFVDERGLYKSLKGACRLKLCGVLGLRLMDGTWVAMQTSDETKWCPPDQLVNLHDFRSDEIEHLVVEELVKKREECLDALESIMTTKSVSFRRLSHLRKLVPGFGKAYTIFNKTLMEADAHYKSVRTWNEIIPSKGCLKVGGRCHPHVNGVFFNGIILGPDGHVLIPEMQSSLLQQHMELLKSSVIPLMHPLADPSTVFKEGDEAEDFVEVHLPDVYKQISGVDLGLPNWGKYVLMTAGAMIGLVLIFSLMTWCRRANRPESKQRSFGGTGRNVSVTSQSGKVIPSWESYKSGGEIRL


Legend:
[1] = target: T2, FTM-NN protein (membrane anchorless form of the Long fusion protein, 70 kDa) (human respiratory syncytial virus, …, UniProt P12568 26-524); assay: SPR (Biacore), FTM-NN immobilised
T2 construct: domain: membrane anchorless form of the fusion protein

[2] = target: hRSV (inactivated hRSV strain Long, Hytest #8RSV79), F protein on virus particles (human respiratory syncytial virus, …, UniProt P12568 26-574); assay: binding ELISA on coated hRSV (Hytest), anti-VHH detection
F protein of RSV B-1 = F protein of RSV B-1 (human respiratory syncytial virus, …, UniProt P13843 26-574); assay: cell-based or functional assay
[3] = target: T2, FTM-NN protein (membrane anchorless …); assay: competition ELISA on coated FTM-NN; competitor biotinylated Synagis Fab
[4] = target: F protein of RSV Long (RSV LONG M-2) (human respiratory syncytial virus, …, UniProt P12568 26-574); assay: cell-based or functional assay
F protein of RSV A-2 = F protein of RSV A-2 (human respiratory syncytial virus, …, UniProt P03420 26-574); assay: cell-based or functional assay
[5] = target: T1, Glycoprotein G of rabies virus strain …; assay: cell-based or functional assay
[6] = target: authentic influenza antigen of A/PR/8/34 (ATCC VR-1469), serotype H1N1 (influenza A virus A/PR/8/34 (H1N1), UniProt P03452 18-565); assay: ELISA, coated authentic AIV antigen, E. coli culture supernatant, anti-c-myc-HRP

Binder | Kd [1] | koff [1] | kon [1] | EC50 [2] | RSV neutralization IC50 (nM) (n = 2), B1 (F protein of RSV B-1) | EC50 [3] | RSV neutralization IC50 (nM) (n = 2), Long [4] | RSV neutralization IC50 (nM) (n = 2), A-2 (F protein of RSV A-2) | CVS neutralizing antibody titre, nM IC50 (RFFIT) [5] | Potency (IU/nM) increase versus monovalent (RFFIT) [5] | Extinction at 450 nm in ELISA [6]
LG191E4 (VHH) VHH: EVQLVESGGGLVQAGGSLRLSCAASGPTFSADTMGWFRQAPGKEREFVATIPWSGGIAYYSDSVKGRFTMSRDNAKNTVDLQMNSLKPEDTALYYCAGSSRIYIYSDSLSERSYDYWGQGTQVTVSS | 0.27 nM | 0.00015 s⁻¹ | 570000 M⁻¹ s⁻¹ | 0.083 nM | 4330 nM |  |  |  |  |  | 
RSVPMP15H8 (VHH) VHH: EVQLVESGGGLVQAGGSLRLSCAASGRSFSNYVLGWFRQAPGKEREFVAAISFRGDSAIGAPSVEGRFTISRDNAKNTGYLQMNSLVPDDTAVYYCGAGTPLNPGAYIYDWSYDYWGRGTQVTVSS | 16 nM | 0.021 s⁻¹ | 1.2e+06 M⁻¹ s⁻¹ | 0.83 nM | 2340 nM | 39 nM | 200 nM | 218 nM |  |  | 
RSVPMP15B3 (VHH) VHH: EVQLVESGGGLVQPGGSLRLSCAASGLTLDYYALGWFRQAPGKEREGVSCISSSDHSTTYTDSVKGRFTISWDNAKNTLYLQMNSLKPGDTAVYYCAADPALGCYSGSYYPRYDYWGQGTQVTVSS | 0.67 nM | 0.00027 s⁻¹ | 410000 M⁻¹ s⁻¹ | 0.058 nM | 1270 nM |  |  |  |  |  | 
213H7-15GS-214 F8 (VHH) EVQLVESGGGLVQAGGSLRLSCAASGRTLSSYRMGWFRQAPGKEREFISTISWNGRSTYYADSVKGRFIFSEDNAKNTVYLQMNSLKPEDTAVYYCAAALIGGYYSDVDAWSYWGPGTQVTVSSGGGGSGGGGSGGGGSEVQLVESGGDLVQAGGSLRLSCVASGSTYSINAMGWYRQAPGKLRELVAAFRTGGSTDYADSVKGRFTISRDTAKNTVYLQMNSLKPEDTAVYYCNAEVIYYPYDYWGQGTQVTVSS |  |  |  |  |  |  |  |  | 0.33 nM | 271 fold | 
IV2 (VHH) VHH: QVQLQESGGGLVQTGGSLRLSCAASGRTFGGYAMAWFRQAPRKGREFVASVTWNGGATDYAGSVKDRFTVSRDTANNTMYLQMNSLKPEDTAVYICGAASGYRSTDRLSDPGWTNYWGQGTQVTVSS |  |  |  |  |  |  |  |  |  |  | 0.048 extinction at 450 nm
IV10 (VHH) VHH: QVQLQESGGGLVQAGGSLRLSCATSGRPFGGYAMAWFRQAPGKGREFVAAVTWSAGTTNYAGSVKDRFTVSRDNANNTMYLQMNSLKPEDTAVYICGAATGYRSTDRLSDPNWVNYWGQGTQVTVSS |  |  |  |  |  |  |  |  |  |  | 0.047 extinction at 450 nm
IV7 (VHH) VHH: QVQLQQSGGGLVQTGGSLRLSCAASGRTFGGYAMAWFRQAPGKGREFVAAVTWSAGTTNYAGSVKDRFTVSRDNANNTMYLQMNSLKPEDTAVYICGAASGYRSTDRLSEPAWINYWGQGTQVTVSS |  |  |  |  |  |  |  |  |  |  | 0.048 extinction at 450 nm
RSVPMP7B2 (VHH) VHH: EVQLVESGGGLVQAGDSLRLSCAASGRTFSSYAMGWFRQAPGKEREFVAAISWSDGSTYYADSVKGRFTISRDNAKNTVYLQMNSLKPEDTAVYYCAADLTSTNPGSYIYIWAYDYWGQGTQVTVSS | 1.1 nM | 0.00065 s⁻¹ | 570000 M⁻¹ s⁻¹ | 0.09 nM | 2690 nM | 1.9 nM | 91 nM | 177 nM |  |  | 
